Reference: publication PMC3711442 (Nucleic Acids Research, 2013)
Residue numbers refer to the chain shown, from its start. Names may count otherwise.

T1: GST-BsUDG S189A (Bacillus subtilis, UniProt P39615 1-225, S189A)
T1 sequence: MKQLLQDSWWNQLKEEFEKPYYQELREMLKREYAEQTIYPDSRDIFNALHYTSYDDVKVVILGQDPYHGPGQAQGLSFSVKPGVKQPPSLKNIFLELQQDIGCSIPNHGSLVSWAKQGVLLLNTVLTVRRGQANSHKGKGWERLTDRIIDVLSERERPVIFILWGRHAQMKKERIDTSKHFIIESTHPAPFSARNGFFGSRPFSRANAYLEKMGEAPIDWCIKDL

T2: GST-BsUDG R194S (Bacillus subtilis, UniProt P39615 1-225, R194S)
T2 sequence: T1 sequence with A189S, R194S

T3: GST-BsUDG, wild type (Bacillus subtilis, UniProt P39615 1-225)
T3 sequence: T1 sequence with A189S

B1: phage ϕ29 protein p56, wild type (natural protein, Bacillus subtilis phage ϕ29)
chain: MVQNDFVDSYDVTMLLQDDDGKQYYEYHKGLSLSDFEVLYGNTADEIIKLRLDKVL
B2: phage ϕ29 protein p56 H28K (natural protein, Bacillus subtilis phage ϕ29)
chain: B1 chain with H28K
B3: phage ϕ29 protein p56 V38E (natural protein, Bacillus subtilis phage ϕ29)
chain: B1 chain with V38E
B4: phage ϕ29 protein p56 N42R (natural protein, Bacillus subtilis phage ϕ29)
chain: B1 chain with N42R
B5: phage ϕ29 protein p56 D45R (natural protein, Bacillus subtilis phage ϕ29)
chain: B1 chain with D45R
B6: phage ϕ29 protein p56 D45S (natural protein, Bacillus subtilis phage ϕ29)
chain: B1 chain with D45S

How the values were obtained:
Assay in all cases: pull-down
GST-BsUDG S189A = target: T1, GST-BsUDG S189A
GST-BsUDG R194S = target: T2, GST-BsUDG R194S
GST-BsUDG, wild type = target: T3, GST-BsUDG, wild type

Binder	complexes formed relative to wild-type p56 (GST-BsUDG, wild type)	also measured
B1		reduction in p56 binding relative to wild-type GST-BsUDG (GST-BsUDG S189A): 84%; reduction in p56 binding relative to wild-type GST-BsUDG (GST-BsUDG R194S): 75%
B2	< 10%	
B3	< 10%	
B4	< 10%	
B5	< 10%	
B6		complex formation relative to wild-type p56 (GST-BsUDG, wild type): ~75%
